Laboratory results: US20260224721A1, “ANTI-CD70 ANTIBODY-DRUG CONJUGATES” (Ambrx, Inc., priority 2023, published 2026)
Square brackets hold non-standard residues; d marks the D form. Peptide text beside a SMILES is read from it. * marks the point of attachment. Dolaproine = CO[C@@H]([C@@H]1CCCN1)[C@@H](C)C(=O)O; Dil = CC[C@H](C)[C@H](NC)[C@@H](CC(=O)O)OC; X1 = CC(C)[C@@H](C(=O)*)N(C)CCOCCOCCOCCON; X2 = C[C@@H](N*)[C@@H](O)c1ccccc1; NMeV = CN[C@H](C(=O)O)C(C)C

Legend:
BCRP = target: T1, BCRP (Homo sapiens, UniProt Q9UNQ0); assay: BCRP substrate assessment; format: in vitro ADME; conditions: data not shown
T1 sequence (Q9UNQ0 1-655): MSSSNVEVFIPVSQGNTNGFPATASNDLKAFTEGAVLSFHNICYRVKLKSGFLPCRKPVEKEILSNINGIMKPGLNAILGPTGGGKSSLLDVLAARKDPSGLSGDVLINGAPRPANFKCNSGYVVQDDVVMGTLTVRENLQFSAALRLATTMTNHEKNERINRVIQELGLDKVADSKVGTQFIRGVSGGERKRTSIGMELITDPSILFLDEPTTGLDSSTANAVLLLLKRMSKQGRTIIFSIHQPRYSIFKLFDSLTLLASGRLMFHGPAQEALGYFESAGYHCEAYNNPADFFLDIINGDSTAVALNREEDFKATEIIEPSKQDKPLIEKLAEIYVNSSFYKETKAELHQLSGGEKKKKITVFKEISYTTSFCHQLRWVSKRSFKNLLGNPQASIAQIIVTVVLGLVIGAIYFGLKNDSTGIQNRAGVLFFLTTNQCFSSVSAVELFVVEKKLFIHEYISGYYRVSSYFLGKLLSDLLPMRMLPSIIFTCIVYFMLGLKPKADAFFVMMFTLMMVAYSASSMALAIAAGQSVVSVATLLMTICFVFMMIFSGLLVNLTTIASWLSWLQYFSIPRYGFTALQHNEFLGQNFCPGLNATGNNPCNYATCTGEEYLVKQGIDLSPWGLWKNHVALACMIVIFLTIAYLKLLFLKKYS

MDR/P-gp [1] = target: T2, MDR/P-gp (Homo sapiens, UniProt P08183); assay: MDR pump substrate assessment; format: in vitro ADME; conditions: data not shown
T2 sequence (P08183 whole entry): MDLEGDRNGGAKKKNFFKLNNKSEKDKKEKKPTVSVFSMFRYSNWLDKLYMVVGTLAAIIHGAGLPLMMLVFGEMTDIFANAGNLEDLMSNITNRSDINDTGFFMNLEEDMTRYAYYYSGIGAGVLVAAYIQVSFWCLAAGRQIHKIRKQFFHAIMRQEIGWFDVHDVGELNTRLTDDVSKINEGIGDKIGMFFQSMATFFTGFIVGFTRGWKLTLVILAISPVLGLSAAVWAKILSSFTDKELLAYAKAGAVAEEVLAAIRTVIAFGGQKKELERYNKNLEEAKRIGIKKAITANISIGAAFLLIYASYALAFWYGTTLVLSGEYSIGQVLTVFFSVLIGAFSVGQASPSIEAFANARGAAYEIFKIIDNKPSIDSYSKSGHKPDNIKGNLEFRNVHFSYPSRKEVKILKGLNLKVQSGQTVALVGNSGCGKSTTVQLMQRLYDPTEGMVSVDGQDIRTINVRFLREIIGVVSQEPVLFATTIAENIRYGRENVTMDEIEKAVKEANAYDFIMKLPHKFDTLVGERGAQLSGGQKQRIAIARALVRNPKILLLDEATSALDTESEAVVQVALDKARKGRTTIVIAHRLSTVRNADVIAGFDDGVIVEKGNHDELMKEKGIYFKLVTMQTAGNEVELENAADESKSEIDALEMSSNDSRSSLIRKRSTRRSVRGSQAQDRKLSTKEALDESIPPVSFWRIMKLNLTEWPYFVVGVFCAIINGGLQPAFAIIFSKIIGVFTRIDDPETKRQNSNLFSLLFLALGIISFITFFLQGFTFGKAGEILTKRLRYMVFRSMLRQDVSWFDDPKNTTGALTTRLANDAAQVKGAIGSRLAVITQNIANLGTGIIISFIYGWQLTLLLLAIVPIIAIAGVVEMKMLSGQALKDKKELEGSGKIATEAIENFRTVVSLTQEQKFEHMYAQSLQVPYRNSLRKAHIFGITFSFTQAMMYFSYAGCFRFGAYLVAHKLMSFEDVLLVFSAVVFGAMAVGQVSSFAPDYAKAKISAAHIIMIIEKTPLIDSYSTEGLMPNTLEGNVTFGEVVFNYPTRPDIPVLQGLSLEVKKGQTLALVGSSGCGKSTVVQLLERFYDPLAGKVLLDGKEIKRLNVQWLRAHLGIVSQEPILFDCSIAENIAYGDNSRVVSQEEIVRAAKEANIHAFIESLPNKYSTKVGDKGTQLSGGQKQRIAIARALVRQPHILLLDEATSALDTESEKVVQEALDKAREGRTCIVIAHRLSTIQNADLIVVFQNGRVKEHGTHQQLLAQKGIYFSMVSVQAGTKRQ

[2] = system: 786-OS3 renal carcinoma cells; assay: 786-OS3/PBMC renal cell carcinoma xenograft model, ARX305 and pembrolizumab; format: in vivo, NCG mice; conditions: study day 36, 5.0 mg/kg dose of pembrolizumab alone, IP QW × 4
Method: ARX305 in combination with a checkpoint inhibitor, such as a PD-1/PD-L1 inhibitor, were tested in a renal cell carcinoma (RCC) model. For RCC, ARX305 in combination of pembrolizumab (PD-1 inhibitor) were evaluated in a cell line-derived xenograft tumor model: 786-OS3.
Female NCG mice were housed five (5) per cage in a pathogen-free, limited access room. Food and water were provided ad libitum. Mice were subcutaneously inoculated in the right flank with 5×10^6 786-OS3 renal carcinoma cells mixed with Matrigel. Tumor volumes were measured twice weekly. When tumors reached from about 175 mm^3 to about 200 mm^3 in size, mice were randomized into five (5) groups of 10 mice with approximately equal average tumor volumes. Cryopreserved peripheral blood mononuclear cells (PBMCs) from a single healthy donor were thawed and cultured in Roswell Park Memorial Institut (RPMI) medium+10% fetal bovine serum at 37° C. for 24 hours. PBMCs were harvested and intraperitoneally injected into tumor-bearing mice (10^7/mouse). After 24 hours, mice were injected with vehicle, pembrolizumab (5 mg/kg), ARX305 (0.3 mg/kg), or pembrolizumab (5 mg/kg)+ARX305 (0.3 mg/kg). Dosing was repeated for pembrolizumab weekly for a total of 4 doses and ARX305 every other week for a total of 2 doses. […] Tumor volumes were continually measured twice weekly and FIG. 15 show mean tumor volumes +/−SEM for each group.

MDR/P-gp [3] = target: T2, MDR/P-gp; conditions: cited from earlier work
cynomolgus CD70 protein [4] = target: T3, cynomolgus CD70 protein (cynomolgus, UniProt A0A2K5WTU9 39-190); assay: SPR
T3 chain: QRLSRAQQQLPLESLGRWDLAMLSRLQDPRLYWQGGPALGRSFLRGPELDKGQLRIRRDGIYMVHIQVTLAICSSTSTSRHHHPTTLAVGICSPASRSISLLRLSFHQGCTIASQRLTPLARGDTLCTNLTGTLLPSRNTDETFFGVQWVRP

human CD70 protein = target: T4, human CD70 protein (human, UniProt P32970 39-193); assay: SPR
T4 chain: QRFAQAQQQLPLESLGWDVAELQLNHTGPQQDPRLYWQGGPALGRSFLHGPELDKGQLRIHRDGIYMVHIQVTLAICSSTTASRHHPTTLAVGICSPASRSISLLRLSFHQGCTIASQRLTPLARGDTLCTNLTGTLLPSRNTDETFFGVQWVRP

[5] = target: T5, CD70 on the surface of human tumor cell lines (human, UniProt P32970 1-193); assay: cell-based or functional assay
T5 sequence (looked up): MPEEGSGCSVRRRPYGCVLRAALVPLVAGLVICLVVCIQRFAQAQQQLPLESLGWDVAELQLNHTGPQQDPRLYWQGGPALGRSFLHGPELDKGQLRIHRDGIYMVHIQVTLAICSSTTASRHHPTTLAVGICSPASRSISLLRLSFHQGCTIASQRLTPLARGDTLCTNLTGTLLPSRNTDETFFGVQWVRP

cynomolgus CD70 protein [6] = target: T6, cynomolgus CD70 protein (cynomolgus, UniProt A0A2K5WTU9 39-190); assay: SPR (Biacore), ADC captured by anti-human IgG (Fc) on CM5 chip, CD70 as analyte, 1:1 fit
T6 construct: SPR analyte; construct not described
T6 sequence: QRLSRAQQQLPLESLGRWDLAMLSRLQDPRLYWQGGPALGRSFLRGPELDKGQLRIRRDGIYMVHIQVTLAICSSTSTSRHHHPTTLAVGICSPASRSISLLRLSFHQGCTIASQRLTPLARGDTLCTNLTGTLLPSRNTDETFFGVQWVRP
Method: (§1) Surface plasmon resonance assays were developed in which anti-human IgG (Fc) was diluted to 25 μg/mL in immobilization buffer ([…] Sodium Acetate, pH 5.0) and injected to an activated CM5 sensor chip for 360 seconds at a flow rate of 10 μL/minute. […] After each cycle of interaction analysis, the sensor chip surface was regenerated with 3M magnesium chloride at a flow rate of 20 uL/minute for 30 seconds. Affinity analysis was performed using Biacore Insight Evaluation software, reference channel was used for background subtraction, and a 1:1 binding method was used for curve fitting.

mouse CD70 protein = target: T7, mouse CD70 protein (mouse, UniProt O55237 45-195, limits assumed); assay: SPR (Biacore), ADC captured by anti-human IgG (Fc) on CM5 chip, CD70 as analyte
T7 construct: SPR analyte; construct not described; also called rodent CD70
T7 sequence (looked up): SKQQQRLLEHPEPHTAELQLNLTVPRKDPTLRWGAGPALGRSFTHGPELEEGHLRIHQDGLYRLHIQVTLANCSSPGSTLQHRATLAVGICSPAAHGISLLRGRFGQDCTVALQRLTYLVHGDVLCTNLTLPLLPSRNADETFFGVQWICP
Method: as §1

CC[C@H](C)[C@@H]([C@@H](CC(=O)N1CCC[C@H]1[C@H](OC)[C@@H](C)C(=O)N[C@@H](Cc1ccccc1)C(=O)O)OC)N(C)C(=O)[C@@H](NC(=O)[C@H](C(C)C)N(C)CCOCCOCCOCCON)C(C)C [AS269, ((2R,3R)-3-((S)-1-((3R,4S,5S)-4-((S)-2-((S)-14-(aminooxy)-2-isopropyl-3-methyl-6,9,12-trioxa-3-azatetradecanamido)-N,3-dimethylbutanamido)-3-methoxy-5-methylheptanoyl)pyrrolidin-2-yl)-3-methoxy-2-methylpropanoyl)-L-phenylalanine] (X1-V[Dil][Dolaproine]F-OH)
substrate for BCRP (BCRP): not a substrate | substrate for MDR/P-gp (MDR/P-gp [1]): not a substrate

pembrolizumab: PD-1 inhibitor [reference compound]
tumor growth inhibition (TGI) [2]: 6%

CC[C@H](C)[C@@H]([C@@H](CC(=O)N1CCC[C@H]1[C@H](OC)[C@@H](C)C(=O)N[C@H](C)[C@@H](O)c1ccccc1)OC)N(C)C(=O)[C@@H](NC(=O)[C@@H](NC)C(C)C)C(C)C [MMAE, Monomethyl auristatin E] (H-[NMeV]V[Dil][Dolaproine]-X2)
substrate for MDR pumps (MDR/P-gp [3]): known substrate

B1: anti-CD70-AS269 ADC (antibody, human IgG1, kappa, V domains shown)
VH: EVQLVQSGAEVKKPGATVKISCKVSGYTFTDYYMNWVQQAPGKGLEWMGIINPYNGGTHYNQKFKGRVTITADTSTDTAYMELSSLRSEDTAVYYCATSGYDLYFDYWGQGTLVTVSS
VL: EIVMTQSPATLSVSPGERATLSCKASQNVGTAVAWYQQKPGQAPRLLIYSAFNRYNGIPARFSGSGPGTDFTLTISSLQSEDFAVYYCQQYSTYPLTFGGGTKVEIKR
modifications: para-acetyl-L-phenylalanine (pAF) at position 114 (Kabat numbering; the X of SEQ ID NO: 3), carrying drug-linker AS269 via an oxime bond
notes: Antibody-drug conjugate: humanized IgG1 mAb with one AS269 drug-linker per heavy chain, DAR about 2; also called ARX305; aCD70-AS269
Kd (cynomolgus CD70 protein [4]): 0.684 nM | Kd (human CD70 protein): 0.228 nM | Cytotoxic Potency (IC50, nM), 786-O cells (CD70 surface expression 133,000) [5]: 0.167 nM | Cytotoxic Potency (IC50, nM), C666-1 cells (CD70 surface expression 9,200) [5]: > 10 nM | Cytotoxic Potency (IC50, nM), Caki-1 cells (CD70 surface expression 107,000) [5]: 0.125 nM | Cytotoxic Potency (IC50, nM), Hs 611.T cells (CD70 surface expression 6,600) [5]: > 10 nM | Cytotoxic Potency (IC50, nM), Hs766T cells (CD70 surface expression 9,500) [5]: > 10 nM | Cytotoxic Potency (IC50, nM), KMS11 cells (CD70 surface expression 9,400) [5]: > 10 nM | Cytotoxic Potency (IC50, nM), NCI-H40 cells (CD70 surface expression 14,900) [5]: 0.18 nM | Cytotoxic Potency (IC50, nM), NCI-H929 cells (CD70 surface expression 0) [5]: > 10 nM | Cytotoxic Potency (IC50, nM), REC-1 cells (CD70 surface expression 17,300) [5]: 0.18 nM | Cytotoxic Potency (IC50, nM), Raji cells (CD70 surface expression 17,700) [5]: > 10 nM | Cytotoxic Potency (IC50, nM), U251MG cells (CD70 surface expression 65,800) [5]: 0.04 nM | Cytotoxic Potency (IC50, nM), U266 cells (CD70 surface expression 65,000) [5]: 0.025 nM | fold difference of affinity between human and cynomolgus CD70 (cynomolgus CD70 protein [6]): ≤ 3 fold | binding result (mouse CD70 protein): no binding
